Assay results taken from patent US20150218257A1.

B1: 1503_H05 (PG16) antibody, sister clone of 1443_C16 (antibody, V domains shown)
VH: QEKLVESGGGVVQPGGSLRLSCLASGFTFHKYGMHWVRQAPGKGLEWVALISDDGMRKYHSDSMWGRVTISRDNSKNTLYLQFSSLKVEDTAMFFCAREAGGPIWHDDVKYYDFNDGYYNYHYMDVWGKGTIVTVSS
VL: QSALTQPASVSGSPGQTITISCNGTRSDVGGFDSVSWYQQSPGKAPKVMVFDVSHRPSGISNRFSGSKSGNTASLTISGLHIEDEGDYFCSSLTDRSHRIFGGGTKVTVLG
B2: 1489_I13 (PG16) antibody, sister clone of 1443_C16 (antibody, V domains shown)
VH: QEQLLESGGGVVQPGGSLRLSCLASGFTFHKYGMHWVRQAPGKGLEWVALISDDGMRKYHSNSMWGRVTISRDNSKNTLYLQFSSLKVEDTAMFFCAREAGGPIWHDDVKYYDFNDGYYNYHYMDVWGKGTTVTVSS
VL: QSALTQPASVSGSPGQTITISCNGTSSDVGGFDSVSWYQQSPGKAPKVMVFDVSHRPSGISNRFSGSKSGNTASLTISGLHIEDEGDYFCSSLTDRSHRIFGGGTKVTVLG
B3: 1469_M23 (PG16) antibody, sister clone of 1443_C16 (antibody, V domains shown)
VH: QEKLVESGGGVVQPGGSLRLSCLASGFTFHKYGMHWVRQAPGKGLEWVALISDDGMRKYHSDSMWGRVTISRDNSKNTLYLQFSSLKVEDTAMFFCAREAGGPIWHDDVKYYDFNDGYYNYHYMDVWGKGTTVTVSS
VL: QSALTQPASVSGSPGQTITISCNGTRSDVGGFDSVSWYQQSPGRAPKVMVFDVSHRPSGISNRFSGSKSGNTASLTISGLHIEDEGDYFCSSLTDRSHRIFGGGTKLTVLG
B4: 1456_A12 (PG16) antibody, sister clone of 1443_C16 (antibody, V domains shown)
VH: HEQLVEAGGGVVQPGGSLRLSCLASGFTFHKYGMHWVRQAPGKGLEWVALISDDGMRKYHSDSMWGRVTISRDNSKNTLYLQFSSLRVEDTAMFFCAREAGGPIWHDDVKYYDFNDGYYNYHYMDVWGKGTKVTVSS
VL: QSALTQPASVSGSPGQTITISCNGTSRDVGGFDSVSWYQQSPGKAPKVMVFDVSHRPSGMSNRFSGSKSGNTASLTISGLHIEDEGDYFCSSLTDRSHRIFGGGTKLTVLG

How the values were obtained:
Test in all cases: cell-based or functional assay
[1] = target: HIV-1 JR-CSF Env (gp160), on transfected 293/293T cells or on JR-CSF pseudovirus (HIV-1 isolate JR-CSF) (UniProt P20871)
[2] = target: HIV-1 92RW020 Env on pseudovirus (HIV-1 strain 92RW020)
[3] = target: HIV-1 JR-CSF(Y318A) Env on pseudovirus (HIV-1 isolate JR-CSF) (UniProt P20871)
[4] = target: HIV-1 ADA Env (gp160), on transfected 293 cells or on ADA pseudovirus (HIV-1 strain ADA)
[5] = target: HIV-1 JR-FL(E168K) Env on pseudovirus (HIV-1 strain JR-FL)
[6] = target: HIV-1 JR-CSF(I309A) Env on pseudovirus (HIV-1 isolate JR-CSF) (UniProt P20871)

| Binder | IC50 (ug/ml), pseudovirus neutralisation, TZM-bl assay [1] [µg/mL] | IC50 (ug/ml), pseudovirus neutralisation, TZM-bl assay [2] [µg/mL] | IC50 (ug/ml), pseudovirus neutralisation, TZM-bl assay [3] [µg/mL] | IC50 (ug/ml), pseudovirus neutralisation, TZM-bl assay [4] [µg/mL] | IC50 (ug/ml), pseudovirus neutralisation, TZM-bl assay [5] [µg/mL] | IC50 (ug/ml), pseudovirus neutralisation, TZM-bl assay [6] [µg/mL] |
| --- | --- | --- | --- | --- | --- | --- |
| B1 | 0.001 | 0.02 | > 1 | 0.003 | 0.002 | > 1 |
| B2 | 0.002 | 0.03 | > 1 | 0.008 | 0.005 | > 1 |
| B3 | 0.002 | 0.05 | > 1 | 0.005 | 0.005 | > 1 |
| B4 | 0.001 | 0.05 | > 1 | 0.005 | 0.003 | > 1 |
